# Data reported in publication PMC9491089.
# Key:
# [1] = molecular target: recombinant His-tagged Cry7Ab4 toxic core (residues 1-637) (Bacillus thuringiensis); experiment: ELISA; plates coated with Cry7Ab4 toxic core (8 μg/well, 4°C overnight); increasing concentrations of BJSP-1-GST added; detected with anti-GST antibody
# [2] = molecular target: recombinant P. xylostella BJSP-1-GST fusion protein (basic juvenile hormone-suppressible protein 1-like) (P. xylostella); experiment: ELISA; plates coated with BJSP-1-GST (8 μg/well, 4°C overnight); increasing concentrations of Cry7Ab4 toxic core added; detected with anti-His antibody
Substance,concentration at which binding was saturated [1] [µg/mL],concentration at which binding was saturated [2] [µg/mL]
recombinant P. xylostella BJSP-1-GST fusion protein (basic juvenile hormone-suppressible protein 1-like) (natural protein),64,–
recombinant His-tagged Cry7Ab4 toxic core (residues 1-637) (domain or fragment),–,16
